Data from PMC6426840.

Target: recombinant human matrix metalloproteinase-2 (rh-proMMP2 activated with APMA) (human) (UniProt P08253)
UniProt P08253, sequence (P08253 30-660): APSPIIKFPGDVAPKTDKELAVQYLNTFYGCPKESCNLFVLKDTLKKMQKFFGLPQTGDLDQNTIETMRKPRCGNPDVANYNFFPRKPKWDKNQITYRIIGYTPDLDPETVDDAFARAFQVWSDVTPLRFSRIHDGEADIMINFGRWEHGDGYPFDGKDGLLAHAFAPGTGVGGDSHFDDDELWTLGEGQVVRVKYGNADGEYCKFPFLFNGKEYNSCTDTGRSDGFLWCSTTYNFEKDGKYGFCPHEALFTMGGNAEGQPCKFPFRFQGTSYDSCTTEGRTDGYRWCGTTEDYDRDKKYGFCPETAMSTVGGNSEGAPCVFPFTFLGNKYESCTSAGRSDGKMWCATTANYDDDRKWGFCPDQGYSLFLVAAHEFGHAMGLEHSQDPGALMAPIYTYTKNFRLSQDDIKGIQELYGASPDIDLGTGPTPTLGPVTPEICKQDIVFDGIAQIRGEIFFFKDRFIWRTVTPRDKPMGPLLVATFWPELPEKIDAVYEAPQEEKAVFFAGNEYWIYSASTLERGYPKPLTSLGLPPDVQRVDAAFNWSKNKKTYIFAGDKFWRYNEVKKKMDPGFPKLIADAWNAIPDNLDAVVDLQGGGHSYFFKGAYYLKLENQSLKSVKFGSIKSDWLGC

MMP2 enzyme activity left (fluorogenic peptide MCA-Pro-Leu-Ala-Nva-Dpa-Ala-Arg-NH2, endpoint after 5 h) with 100 ng/mL rhMMP2 and 40 ng/mL rhTIMP3, molecular ratio about 1:1, without GAG: 15% | TIMP3-induced inhibition of MMP2 enzyme activity when hyaluronan (HA, 200 µg/mL) is added to MMP2 and TIMP3 pre-incubated for 30 min at 25 °C; change against the control without GAG: 5%
B1: recombinant human tissue inhibitor of metalloproteinases 3 (natural protein)
chain: CTCSPSHPQDAFCNSDIVIRAKVVGKKLVKEGPFGTLVYTIKQMKMYRGFTKMPHVQYIHTEASESLCGLKLEVNKYQYLLTGRVYDGKMYTGLCNFVERWDQLTLSQRKGLNYRYHLGCNCKIKSCYYLPCFVTSKNECLWTDMLSNFGYPGYQSKHYACIRQKGGYCSWYRGWAPPDKSIINATDP
